The values below come from PMC8779868, “Uncovering Novel Plasma Membrane Carboxylate Transporters in the Yeast Cyberlindnera jadinii” (Journal of Fungi, 2022).

B1: CjAto5 (Williopsis jadinii) (protein)
chain: MSTSSLPEDLEKGYATQSLHEMNTAVTNDPSQPVVMRVVTSSNGDIIHLGNQAFSKKDLFNAFAGDLQPGLHATPHRPMGNPVPMGLTSFCICCFVVSLVNAQARGVTNAKVIASCALFFAGVVETISGLWCLVIENTFAATALGSFGGFWMGYAGLLIDAFGITSSYSTTEELGNALGFYLTAWTIFAFLMWLCTFKSTWPFFILFLLVWVFLMCLAIGKYNDNTTATKAGGVLGLVATFVGFFIVYAGVADSSNSYLTIPASPMPHAPRV
B2: CjJen2 (Williopsis jadinii) (protein)
chain: MTSPLPVSPTQDSGLEEPKEDKNIGLTRTLQENEEDSNSSNDEDVPDYSWSSIKRYSRTRFTTLGELHLDSLSDLNPLPALKEMTPRNWNFFFMGFIAWFSASFAFFLTAVSGTVIAESLEVSTKDITWGLSSVLMVRSAGAVIFGLWTDNYSRKWPFIATAAMFCVLQIGTGFCNTYTQFLAGGTYATAAATSLEDAPLKARSTLSGLFFTAYPFGMVFAAIFWRAFQETDHTWKALFWFSAGIPFVLIIWRLLYPETIYFTELLKVKKLIKEEASTSPKISKWAKTKTMFSKYWLLFTYLVLLLASSNFLTHASQDMYPTMLRSQFGWSNDAQTVAIVVTNLGGVIGSLVTGIVMEVLGRRLSILLCCVIGGSFIYPALMLHTTSATLGCGFFMMFGVLGVWGVIPAHLSELSPPDARVLVSGLAYQLGNLASSASSTIETDLAQRWPLEWDAEGNVIRLDYAKTIAVFTGAVFIYTVVIALVGPEKYHRDLNSPLLKKYFAKLRENDVEKGSSSE
B3: CjJen1 (Williopsis jadinii) (protein)
chain: MHKLEESVTRQDSIHEDPDDVVIEDEQEIILNWPNIVEYSKTRFTSLTHLHLHAVGDLNPLPSLREMSWNNWNFFFMGFVAWFSASFDFFLTAVSGTYIAQSLDVSTADITWGLSAVLMVRSAGAVIFGLWTDNYSRKWPFITTAAMFCALQIGTGFCKTYQQFMAVRAISGIAMGGTYATAAATSMDDAPLKARSFLSGLFFSAYAFGMIFAAIFWRAFESTKHSWKALFWFSSCFPFILICWRLVFPETRYFTRVLKARELIKQDQIEAGVYVKPTLKTKWGSVKAMLKKDWLLFTYLVILLAGTNYLTHASQDMYPTMLRSQLEWSLDAQTVAIVVVNLGAICGGLIAGTFMEVTGRRLAILICCVIGGCFVYPAYMMHNNSAVLGGGFFLFFAVIGVWGVLPIHLSELSPPDARALVSGLAYQLGNLASSASSTIETRLAKLWPLEWDAEGNPIKYDYAKTIACFTGAVFIYVFITTFIGPEKFHRDLSSPLLKTYIEKVIEIEEGRDPEAKFVTSSGDTSEQASYGKATHEEIELDCYPQEKK
B4: CjAto3 (Williopsis jadinii) (protein)
chain: MAANVDLEKQATPNSSNDNHTFSPEDEAHPVSKVYTSGENDQYIMIGRTKVLRSELWNAFGGDLQPGIHATPPRRFANPAPLGLCAFALTTFVLSMVNARAMGITTPNIVVGLALFYGGFVQLLAGMWEIALDNTFGGTALSSYGGFWMSYAAIQIDWFGIKSAYTDPIELANAVSFFLLGWTIFTFMILLCTVKSTVSFFSLFFFLEITFLLLTIGDFTRRVGVTRAGGVFGVITAFIAWYNAFAGIATKENSYITIKAWPLPGAKRA
B5: CjJen5 (Williopsis jadinii) (protein)
chain: MDWDAFDFFVMSLNVSKLATDLDRSVKDISWGITVVLMFRSVGAIVFGYFGDRYGRKWPLIVNLFCLVVIQIGTGFINTYAEFIGVRALFGVFMGSMYGLASATAMEGLPTSARSFLSGVYQQGYALGYLLGVIFQRAITDTTTHTWRSLFWFSAGPPKLKPFLQQQLHMKNKNTSFSEDACKVFKEQWLKMIYLVLLMAGMNFMSHGSQDLYPTMLTVQLNYSPNRSTVTNSVANLGALAGGMTFGHFSGFLGRRSGIIICSILGACMIYPWAFVRNSGINAGVFFLQFFVQGAWGVIPIHLSELSPPEFRAFVVGVSYQLGNLASSASSTIESTLGERYPLYDDNGDVIEGVYDYARVMAIFVGAVFCYVILIAFIGPENRHSNINYVLSKEEEEELIQQRMIVTNNGSEQDSNADDEEKLVTAHTEKIEPK
B6: CjAto4 (Williopsis jadinii) (protein)
chain: MSDKENQTLNNPQTQDYASTGGKPDVEHGEIPVSKVYTTGDQDEYLMIGHQKVLRSELWTAFGGDLQPGVHAPPPQRLANPAPLGLCGFALTTFVLSMANARAMGVTIPNAAVGAACFYGGLVQLLAGMWEISLDNTFGGTALSSYGGFWMSWAAIQIDWFGIKKAYDDPIMLANAVGFFLLGWTIFTFMLVLCTVKSTVAFFSLFFFLDITFLLLTIGEFTRKTGVSRAGGVFGVITSFIAWYNAFAGLATKENSYVVAIPLPLPGAKRS
B7: CjAto1 (Williopsis jadinii) (protein)
chain: MSDKESQMLNTSQSQERAIDAGCDDLQEDVEHQQVPVSKVFTSGERDEYVMIGRTKVLRSELWNAFGGDLQPGIHAPPPRRFANPAPLGLCGFALTTFVLSMSNARAMGITVANVAVGPAFFYGGIIQLLSGMWEISLDNTFGGTVLSSYGGFWLSWAAIQIDWFGIQRAYDDPIMLNNGLGFFLLGWVIFTLMVLICTVKSTVAFFSLFFFLEMTFLLLTIGEFTRSVGVTRAAGVFGVITSFLGWYNALAGFATRENSYFVATAVPLPGAKRAQVHS
B8: CjJen3 (Williopsis jadinii) (protein)
chain: MAMSDVKRYILSRVPTLFCIPGTSFQALNPVPALSALSRNDWNYFLMGYAAWTIDAFDFFCVSACAPALAQALDRSVTDITWGITLVLMTREYFAHIDGQLTDIFEIGSLGAVIFGSLSDTYGRKPTYLAVMCLFCIIEVGTGFVQNYTQFLVVRAMFGICMGGCYTTASATALESQPVGSRSVLGGIFLPGYNLGYILAVAFYRAFEFTEHGWRALFWFSAAPPAILFVWRMFFPEHPHFTALKRVQREKALSEGKHHQASSPWAQFFADLKSAMRHHWLMFVYLVIYMSLMNFSSHASQDLMPTMLQNQLGFEANDRTIIMVVINIGAIFGGLCVGTISEYTGRRLAVFVCTICSSALIYPAFYTTDMAGLICGGFFMQFFVMGCWGVTSVYIMELSPNAFRALFGGLAYQLGNLASSASSTIEAEISEAFPLSDIGPEVYDYARSMALFMVGVNVCLVICIVSGPEKFHKDFSIQGEGQEQLQRKSCNDVDEELAIEYTEDLKHTDRVSWTEKHSIHHNEKT
B9: CjJen4 (Williopsis jadinii) (protein)
chain: MTAGRYIATRIPSLFTLPGTPVKSLNPAPAMRALSRSDWNYFAMGYCAWVIDAFDFFCVSACAPALAKAFDRSIHDITWGITLVLMTRSLGAVIFGSLSDTYGRKPTYLAVMALFSIIEIGTGFVQNYTQFLIVRLLFGICMGGCYTTASATALESQPTTSRSVLGGIFLPGYNLGYILAVAFYRAFEFSTHGWRALFWFSAAPPAILFMWRLMFPEHPHFVEHKRVQREKALAEGNHAQAASPWRQFYSDLKKALSNHWLMFVYLVFYLSLMNFSSHASQDLMPTMLQNQLFFSANQRTAIMIVVNLGAMVGGLCVGTLSEFTGRRLAIFSCAVGSSALIYPAFFSTSIGGLMAGGFFMQFFVMGCWGVCSVYIMELSPPAFRALFGGLAYQLGNLASSASSTIESEISSSFPLPDLGPSVYDYAKSMALFMVGVNVCLIVCIVCGPEYFHRDFSAHAEENYSDQKKATIEQFDTASDEERAMGSLKMNTEVEEFDMDKASVQHRESARD

Substrate in one data set: O=C(O)CC(O)(CC(=O)O)C(=O)O
As to the kind of experiment: cells, lysate or membranes. Particulars: pH 5.5, 30 °C, labelled compound, pH 5.5.
Turning to B1, the Km came to 22.21 ± 7.14 mM.

Substrate in another data set: CC(=O)O
As to the kind of experiment: cells, lysate or membranes. Particulars: pH 6.0, 30 °C, labelled compound, pH 6.0.
Turning to B2, the Km turned out to be 1.26 ± 0.35 mM.

As to B3, the Km is reported as 2.15 ± 0.60 mM. Same read-out and setting: the value for B4 was 9.17 ± 4.70 mM.

Take B5: the Km was determined as 5.18 ± 1.51 mM.

Consider B6, for which the Km was 1.28 ± 0.38 mM.

As for B7, the Km was determined as 12.18 ± 4.67 mM. Same read-out and setting: the value for B8 was 3.21 ± 1.07 mM; that for B9 was 1.62 ± 0.43 mM.
